According to patent publication US20250043002A1:

Biological target: human PD1 expressed on Jurkat/AP1-Luc/hPD1 cells (human) (UniProt Q15116)
Test: cell-based or functional assay

human PD1 expressed on Jurkat/AP1-Luc/hPD1 cells (human), sequence (Q15116 25-288): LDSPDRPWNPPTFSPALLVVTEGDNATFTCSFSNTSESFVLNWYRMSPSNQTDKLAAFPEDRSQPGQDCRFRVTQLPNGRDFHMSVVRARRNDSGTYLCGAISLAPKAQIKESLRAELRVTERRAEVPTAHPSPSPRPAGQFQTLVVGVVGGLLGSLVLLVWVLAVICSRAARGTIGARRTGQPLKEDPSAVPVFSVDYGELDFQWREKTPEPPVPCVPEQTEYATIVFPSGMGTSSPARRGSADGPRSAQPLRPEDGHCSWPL

- AP-1 luciferase EC50, WSU-DLCL2/hPD-L1 + Jurkat/AP1-Luc/hPD1: 0.29 nM
- AP-1 luciferase MAX (RLU), WSU-DLCL2/hPD-L1 + Jurkat/AP1-Luc/hPD1: 1.1e+06 RLU
B1: REGN2810 (cemiplimab, LIBTAYO), anti-PD1 antibody (antibody, INN chains, looked up, V domains shown)
VH: EVQLLESGGVLVQPGGSLRLSCAASGFTFSNFGMTWVRQAPGKGLEWVSGISGGGRDTYFADSVKGRFTISRDNSKNTLYLQMNSLKGEDTAVYYCVKWGNIYFDYWGQGTLVTVSS
VL: DIQMTQSPSSLSASVGDSITITCRASLSINTFLNWYQQKPGKAPNLLIYAASSLHGGVPSRFSGSGSGTDFTLTIRTLQPEDFATYYCQQSSNTPFTFGPGTVVDFR
